From paper PMC9504171, “Revealing a New Family of D-2-Hydroxyglutarate Dehydrogenases in Escherichia coli and Pantoea ananatis Encoded by ydiJ” (Microorganisms, 2022)

How the values were obtained:
purified protein [1] = substrate: O=C(O)CC[C@@H](O)C(=O)O; test: purified protein; type: biochemical, Escherichia coli; settings: 200 μM phenazine ethosulfate, 100 μM DCIP, 50 mM Tris-HCl pH 8.0, 25 °C
purified protein [2] = substrate: O=C(O)CC[C@@H](O)C(=O)O; test: purified protein; type: biochemical, Pantoea ananatis; settings: 200 μM phenazine ethosulfate, 100 μM DCIP, 50 mM Tris-HCl pH 7.5, 25 °C

B1: D2HGDHEc (YdiJ, E. coli) (Escherichia coli K-12) (protein)
chain: MIPQISQAPGVVQLVLNFLQELEQQGFTGDTATSYADRLTMSTDNSIYQLLPDAVVFPRSTADVALIARLAAQERYSSLIFTPRGGGTGTNGQALNQGIIVDMSRHMNRIIEINPEEGWVRVEAGVIKDQLNQYLKPFGYFFAPELSTSNRATLGGMINTDASGQGSLVYGKTSDHVLGVRAVLLGGDILDTQPLPVELAETLGKSNTTIGRIYNTVYQRCRQQRQLIIDNFPKLNRFLTGYDLRHVFNDEMTEFDLTRILTGSEGTLAFITEARLDITRLPKVRRLVNVKYDSFDSALRNAPFMVEARALSVETVDSKVLNLAREDIVWHSVSELITDVPDQEMLGLNIVEFAGDDEALIDERVNALCARLDELIASHQAGVIGWQVCRELAGVERIYAMRKKAVGLLGNAKGAAKPIPFAEDTCVPPEHLADYIAEFRALLDSHGLSYGMFGHVDAGVLHVRPALDMCDPQQEILMKQISDDVVALTAKYGGLLWGEHGKGFRAEYSPAFFGEELFAELRKVKAAFDPHNRLNPGKICPPEGLDAPMMKVDAVKRGTFDRQIPIAVRQQWRGAMECNGNGLCFNFDARSPMCPSMKITQNRIHSPKGRATLVREWLRLLADRGVDPLKLEQELPESGVSLRTLIARTRNSWHANKGEYDFSHEVKEAMSGCLACKACSTQCPIKIDVPEFRSRFLQLYHTRYLRPLRDHLVATVESYAPLMARAPKTFNFFINQPLVRKLSEKHIGMVDLPLLSVPSLQQQMVGHRSANMTLEQLESLNAEQKARTVLVVQDPFTSYYDAQVVADFVRLVEKLGFQPVLLPFSPNGKAQHIKGFLNRFAKTAKKTADFLNRMAKLGMPMVGVDPALVLCYRDEYKLALGEERGEFNVLLANEWLASALESQPVATVSGESWYFFGHCTEVTALPGAPAQWAAIFARFGAKLENVSVGCCGMAGTYGHEAKNHENSLGIYELSWHQAMQRLPRNRCLATGYSCRSQVKRVEGTGVRHPVQALLEIIK
notes: 1018 residues; calculated 113,248 Da; homotetramer ~440 kDa
B1 gave a Km (purified protein [1]) of 83 ± 5 µM, a kcat (purified protein [1]) of 13.9 s⁻¹ and a kcat/Km (purified protein [1]) of 170000 M⁻¹ s⁻¹.

B2: D2HGDHPa (YdiJ, P. ananatis) (Pantoea ananatis AJ13355) (protein)
chain: MIPQISQAPGLIQRVLTFLETLKAQGFTGDTATSYADRLSLSTDNSIYQLLPDAVLFPRSTADVALIARLAGEAAFSSLVFTPRGGGTGTNGQSLNQGIIVDMSRHMNRILEINTEQRWVRVEAGVVKDQLNAYLKPFGFFFSPELSTSNRATLGGMINTDASGQGSLVYGKTSDHVLGLRAVLLGGDILDTRPVPTALAENLAQTPTPEGRIYQQVLTRCREHRELILEKFPKLNRFLTGYDLRHVFSDDMQTFDLTRLLCGAEGTLAFISEARLDITPLPKVRRVVNIKYDAFDSALRNAPLMVEAQALSVETVDSKVLNLAREDIVWHSVRELITAIPDKEMLGLNIVEFAGDDAGQIDRQITQLCARLDTLMTQQQGGVIGYQLCDDLDGIERIYNMRKKAVGLLGNAKGRAKPIPFVEDTAVPPEHLADYIVEFRALLDSHGLSYGMFGHVDAGVLHVRPALDMCDPHQEMMMKQISDEVVALTARYGGLLWGEHGKGFRAQYSPAFFGETLFNELRRIKAAFDPHNRLNPGKICTPFDSEAAMMQVDATKRGSYDRQIPLQVRETWRGALECNGNGLCFNFDARSPMCPSMKITRNRIHSPKGRATLTREWLRLLAEQGADPVMLEKKLPESSLSLRALISRMRNTWYANKGEYDFSHEVKEAMSGCLACKACSTQCPIKIDVPAFRSRFLQLYHTRYLRPLSDHLVAGVESYAPLMAKAPGVFNFFLKQPWATSFSKTHIGMVDLPLLSSPTLKQQLSGHPAMNMTLEQLEALSETQRAQKVLVVQDPFTSFYEAKLVHDFIRLIEKLGYQPVLLPFSPNGKAQHVKGFLQRFARTASKTADFLNRVAKLGMPMVGIDPATVLCYRDEYHQMLGEARGDFNVLLVHEWLHQALQEREVQVTSGEAWYLFAHCTEVTALPGTPGQWQAIFSRFGAKLENINVGCCGMAGTYGHESQNLENSLGIYALSWHPQLQKLPRQRCLATGFSCRSQVKRVEGNGMRHPLQALLELI
notes: 1018 residues; calculated 113,453 Da; homotetramer ~440 kDa
B2 was tested, and the Km (purified protein [2]) was 208 ± 10 µM, the kcat (purified protein [2]) was 9.7 s⁻¹ and the kcat/Km (purified protein [2]) was 50000 M⁻¹ s⁻¹.
